The source of these data is the DeepSol protein solubility set.

The series in a line: soluble on expression in E. coli; label from the status in PepcDB or PDB records.
As to “MQRNLSHIISQATSAPLLLEPAYARVFFCALGRESGINSLHIPGNNESLDQSDMALVTGDFMATGKPQARFYQVVNGIAVLPVTGTLVHKLGGMRPFSGMTGYDGVTARLQQAVSDPEVKGILLDIDSPGGQAAGAFDCADMIYRMREQKPVWALANETACSAAMLLAAACSHRLVTQTSRMGSIGVVMAHTSYAEKLKQEGIDITLIYSGAHKADLTPSQKLPESVYADYQQRMDEARKMFAEKVARYTGLSVDAVMATEAAVYDGQAIITTGLADGMVNAADAIGVMAEAINSNKTGGTMPELSAADAVTQENQRVMGILGCPEARGHEALAQMLAGQPGMSVAQAKSILAAAAPADTTSTADRILALEEAGGRETLAQTLAAMPEMTVEQARTILAASPIAAATSLHDAVMALDEAKGREELAEKLAVMPGMTTDQARDLLAAAPDKSGNAGLSMNNAFDAFMQSHSPGPISGGKGHSNDTETTLLMSIPGTSATLEHHHHHH”, the “soluble on expression in E. coli” value is “not soluble”.

For “MQSHTFTRSRGVPIYMNGSVSHQRLYDRLSEPSTSRQLPRSISLAPTGHHRTGSTRIDREQVDTSLPVTYIPRFHDESAVRRMNYRQIPGTDIRMSKIGFGAAAIGGMFGNVEDSIIKIVETAIKQGINYIDTGYWYSQSRSESILGKALSKIPRKAYYISTKVGRFELDYARTFDFRADKILESLTNSLKRLQLTYIDICYVQIHDADFAPNESIVLYETLQALEMAKSSGKIRHIGLTGYPLGKLVYSFRYVWNAPKLYFSVNLSITRNIAVINSGALCWGLLTEKGPPPWHPASDEIKEACLAATTYCSSKNISISKLALDYALNFPNVICCLVGMDSVQQVLDNLELSNFSRITDVEQRVRDRIMRRYLDRLENAGWEGVDVAQYWKKLKKLGLTALATHRHSSVESLASTLNGFSLYSSNSSSELRTPRRRRPF”, the “soluble on expression in E. coli” value is listed as “not soluble”.

As for “MQTISDNAANAIQEIFGRSKALIGMIHCPAFPGAPRYRNASMDAIYDACMRDAERLIEGGMHGLIVENHGDVPFSKPDDIGPETSAFMSVVTDRIVRTAGVPVGINVLANAPIPAFAIAKAGGAKFIRVNQWANAYVANEGFMEGRAAEAMRYRSLLRAEHIKVFADSHVKHGAHAITADRSIDELTRDLAFFDADGVIATGQRTGNSASLEEIEEIGAATHLPLLVGSGVNEGNIVEILKRTSGVIVASSLKEGGVWWNPVELARVRSFVAAARPGLEALEHHHHHH”, the “soluble on expression in E. coli” value is listed as “soluble”.

For “MQTKNKQGVLLVNLGTPDEPTAPAVKRFLSQFLHDHRVVDMTRWLWCPILHGVILPIRSPKVAKLYESVWMEEGSPLMVYSKRQAKKLAQHLDMPVELGMTYGNPSLQSGFEALIAQGVEEVIVLPLYPQYSGTTTAAVSDGITKAFKQLPVMPAFSFIRDYHDHPMYIEALAHSVRQYWEEHGKGDYLLCSYHGIPKRYADNGDIYPQHCEATTRLLGEALGLSSDQIGMAYQSRFGREEWLQPYTDKTLETITSKGVKKIDIMTPAFSSDCLETLEEIAGENKEIFMEAGGEQFHYIPCLNDDDMHIDMMAELVRSKL”, the “soluble on expression in E. coli” value is listed as “not soluble”.

On to “MQTQARPPVPQGPRFNHPATPQQVRRPINAPLPGQTAQIQGNRGPQPPKKKKRYADKLIQPKVRELVPESQAYMDLLAFEQKLDSTITRKKIDVQEALKRPQKIKKRLRIYISHTFIAGKEPEKEGDDASVPMWELRVEGRLLDDMQHPTVGANPRPAPKRKFSSFFKSLVIELDKDIYGPDNHLVEWHRTPQTNETDGFQVKRPGDRPVKCTILLLLDYQPMKFKLHPRLAKVLGIAAETRPRIIEALWQYIKTHKLQDPQDRDTINNDLFLEQCFGVSKMRFMEIPQRLHQLLQQPDPLVLNHIIQRPDDGQDKTSACYDIDVELEDPVKQQMANFVHNQTNANDIQLLDQKIFDLVDQINEMKLRRDFFLRFSNEPSGFIKKWVVSQNSDLKTLTESSGDGESDRYATTYSTTDTDEGVSRYMYQKIQQKRAELEQSLGIRNN”, for which the “soluble on expression in E. coli” value was “not soluble”.

Consider “MQTVGSFSEFLDDMVGRYGPRPAIQYRPRYRTLRWSYLELGTHAAKLASLLDEHGVGSGDRVFLSAENSPHWVAAFFAIAARGAVIVPLNPRSPPEQLANLVRSAGPSLVLASPRRRWEGPPLPVVDIERSGRVPSNRPATRTGPARLAEIIYTSGTTGDPKGVMLTHANLLSDLSAVARAIPLAPDDHVLSLVPLFHVYGQMTSLFCPLAAGCPVSYLTTPTTRSVLEALTHTPVTHLVAVPEVLKTMMDRLESRIGRIPGFLWPLLRGRIRARISGSLRTIVCGGAPLDPVVEEKWWALGFQVLQGYGLTETSPVIAANTPQAHRIGSVGKPLDEVELRIASDGEILVKGPMVMAGYFRDPARTEAAFADGWLKTGDAGRLDADGFLYVYGRKRYMILGPGGENVFPEDIEAVLNRTAGVTDCAVVGLESGGRTLVHAVLLADADEARAAAIVAEANRHLAPHQRIVSWSLWPEPDFPRSVTRKVKKDEVLGRLRREPSTQAVPVGRSTPLRLLLAQVAGTEAGALSDDTRLVPDLGLDSLLRIELVARIEEDLGVCLDEIDIGPLTTVADLENLLVRRQDRMPRVDAHPRWSLSPWASRLRPLAQKVFLQWWIAPFCRLRVSGLEHLAALDGPVIFMANHRSYLDSAVASFALPDRFRYRLAIAAATGVLYTRYRWAVPIGELSLNAFPLPSGPDENIRPGLELIGRLLDDGWNVLIFPEGQMNRGGLGIQPLRRGAGTIGVDMGVPVVPLVIEGTEKVMPPGRIVPRAAAPVSVRFGAPLRAGEAEPHGRMLARIEDALRRLLENSPLEHHHHHH”, for which the “soluble on expression in E. coli” value is reported as “not soluble”.

Consider “MQVLLLEDEPRLGQAVARALAAQGYGVRWARSLGEAREAFLELEPDLMVLDVRLPEDEDGGFRFAKEAREAGYKGPILFLTARDALEDRVQGLDLGGDDYLVKPFHLEELLARVRALLRRASEVKASRVRLGPLEVDLAGRGVYLAGRRVDLSLKEFALLETLLLHPGRVFAPEELAERVFGDPEKVGAVKVYVHYLRQKLFPEVVRTVPGGYRLGHEP”, for which the “soluble on expression in E. coli” value is listed as “soluble”.

“MQVTHKILKIPSKGYRKILSLLNEKGQARLIGGCVRDALLDLLHNKTNKEEFEGDTERRIAMYINVREDSSTGSTYKLPLEASYPRDRLEKGSCDIDIATNLTPSEVTNILSGAKIKTIPTGLKFGTITATLNNEKFEITTLRKDIECNGRHAKVIFTNDFAEDAARRDFTINALSYCPFKNEIYDYFEGFKDLQQEKVVFIGEALDRIKEDYLRILRFFRFSSYYANQLDDGNFKACKALKDGLKTLSRERIKSEMDKIIVSKRAAQILKAMFEIGILELIFSIQNYEIKFFEQANDFKLELVTRYALLLYCQKDLNLKVFLDWKFSKHEAMQILSITNFLNDAKFNMKKIWFEKKNYKEYLLAARIIGKLNHSQVKEFILKYDALLRPKFQVNGNDLLNMNIEKKKIGAKLEYLKNFWIEQDFKPSKLELLAKL”: the “soluble on expression in E. coli” value was “soluble”.

Take “MQVTSAEYLSNEESIKKGGNILMEKYNEKYNESIDGNKTLYKSYYESRRESIKNYNPDAKYINEIESIYMMLGEIYPNAPDFMSPHFEGDCSEGE”: the “soluble on expression in E. coli” value was “not soluble”.

As to “MQWQELYRQRVCSADEAVVDSLKPGTKVVFGHAAAAPVRFSQAMYRQREKLENITVFHMLYFGDAPHLAPEMRSHVHPTLNFLEGNSRPASRDRRVDFIPCHFHEVPELFRQGFFPLDVAVVQVSTPNEEGYCSFGVSCDYTKAAAECAPVVVAEVNKQMPFIGGENLIHISKLTHIIEVDEPIAEVLPPAISDLELRIGQNCASLIKDGDTLQLGIGGIPDAVLRALEGHKDLGIHTEMFTDGVMRMIRKGIINGKKKTLHPEKVVTSLIFGSKELYDFVNNNPVIECYPGDYINNPDVIGKNDRMVSINSCLEMDLMGQAASESIGYEQFSGSGGQVDFLRGAKRSKGGISIMAFPSTAKKGTESRIVPILKEGACVTTGRNEVDYVVTEYGVARLRGATLRQRAEALTAIAHPDFRPALEEEIRRRFELEHHHHHH”, the “soluble on expression in E. coli” value is reported as “soluble”.

For the sequence “MQYKGQGFQPVAEKSAIAHAKKYREEYEKLGEQFFKDNFSLNVKATNVVGSGDGVEVYVHCDDHDIVFNASIPFDKEAIHEEGSMRSNDNGDTMSNMVGTVLSGFEYKAQKEKYDNLTKFFKDNEEKYQYTGFTKEAIHKTQNVGYQNEYYYLAGNVTNINNYRKYYEPLIKKDSKNFKEGMKKANEATNFKAKIEVVSTLFSTKSDFTKNNSKKDLLFLSDDLYHYKEKPENTNITLQLSEPKINSTRAFYDANNPLEYGVHKHELEHHHHHH”, the “soluble on expression in E. coli” value is on record as “not soluble”.

With “MQYNPLGKTDLRVSRLCLGCMTFGEPDRGNHAWTLPEESSRPIIKRALEGGINFFDTANSYSDGSSEEIVGRALRDFARREDVVVATKVFHRVGDLPEGLSRAQILRSIDDSLRRLGMDYVDILQIHRWDYNTPIEETLEALNDVVKAGKARYIGASSMHASQFAQALELQKQHGWAQFVSMQDHYNLIYREEEREMLPLCYQEGVAVIPWSPLARGRLTRPWGETTARLVSDEVGKNLYKESDENDAQIAERLTGVSEELGATRAQVALAWLLSKPGIAAPIIGTSREEQLDELLNAVDITLKPEQIAELETPYKPHPVVGFK”, the “soluble on expression in E. coli” value was “soluble”.

For the sequence “MQYPINEMFQTLQGEGYFTGVPAIFIRLQGCPVGCAWCDTKHTWDKLSDREVSLFSILAKTKESDKWGAASSEDLLAVINRQGYTARHVVITGGEPCIHDLMPLTDLLEKSGFSCQIETSGTHEVRCTPNTWVTVSPKVNMRGGYDVLSQALERANEIKHPVGRVRDIEALDELLATLSDDKPRVIALQPISQKEDATRLCIETCIARNWRLSMQTHKYLNIA”, the “soluble on expression in E. coli” value is reported as “not soluble”.

As for “MQYVKIKDSIVEQIEAGMLSPRQKLPAERKLAESFDTTRVTLREALSLLEAEGRIYREDRRGWFISPEPLRYDPTQTLNFPNMAKAQNRVPKTELIAAKGTLANKQSARLLQLQPFSDVFRVDRVRYLEDRPVVYVTNYIRPEIFPNLLSFDLTNSLTDIYREHFGVVYQKTRYRISTSTLLGEVAQALRATSGTPAMVVERTNYNQHGELIDCDIEYWRHDAISIESVAELNQ”, the “soluble on expression in E. coli” value was “not soluble”.

On to “MRAGIYRRSAGQGAEEKPEAVRAGHRGGGERHHDHAHHDGEGEFVVREELLHGRSVRFRRRSERIDEHEHRQRDRGHAQPGADRGAPGRQRATTGDNVCDGTPGSPHRRVRRRRPAPAA”, for which the “soluble on expression in E. coli” value is listed as “not soluble”.

Regarding “MRAGVREVIDDSSERTLQQVIERAFLRTKGAIIRQKRVFGFVSAKGGDGGSCIAANFAFALSQEPDIHVLAVDISLPFGDLDMYLSGNTHSQDLADISNASDRLDKSLLDTMVQHISPSLDLIPSPATFEKIVNIEPERVSDLIHIAASFYDYIIVDFGASIDHVGVWVLEHLDELCIVTTPSLQSLRRAGQLLKLCKEFEKPISRIEIILNRADTNSRITSDEIEKVIGRPISKRIPQDEDAMQESLLSGQSVLKVAPKSQLSKTIVDWALHLNGVSRPNKRSIWERLKIK”, the “soluble on expression in E. coli” value is “not soluble”.

In the case of “MRARGRLLPRLLRTNIQSSRFLVSLGHTNDVMSSHLCSLCHLDHHPHPTPPSSSSSSSSLSLCAWLSCVCVCVCVYMHTTYHTGLSTYQCSILQPPPSPSLSTHTFLCVYCVLAPSSPPCIMVDTSSSAPASASPAITTSAAATTPVVILVVGMAGTGKTTLVHRMQHYAHTNGIRSYFINLDPAVTHTPYNVNIDIRDSVRYGEVMKNYRLGPNGAIMTSLNLFATKIHQVVSLLEKKEEMLDWIIVDTPGQIEVFTWSASGQLMADSFGAVFPTVLLFVADTVRCVSSPQTFVSTMLYSSGIMLKQQVPLVVVFNKTDVVSADSVIAWMRDNDALDEAVTNPHRSNRSRRAVSGEPGDGEDADWRGEGTRIGAAALGSQDALLANQGSGYAGTLAQSMSLFLHEFYEDLPYAAVSAASGAGMSELAASIERGKQQALEAKAERSAH”, the “soluble on expression in E. coli” value is “not soluble”.

As for “MRAVAEQARVKTLRIQPRAMALPPDELAECARTAVNEALADLRSAMPSDAGPGVDPAAALEYLNQVQVEGLRTLELVTGALEQAMAQIRQTAAAHGTPAPHGLHRIVEEVQQTLAAVSRPPQEAPDDLEGTAEAAQGRVRAVAEPGGRIRSLTVQARAMRSPSQELAEHIVTAVNNALDDLQAKTRRETEIVEIDQRRLDELRESAMRQSAEFMRSVSDMINSIQPR”, the “soluble on expression in E. coli” value is on record as “not soluble”.
